Test results from patent US20190153078A1 (Sanofi, published 2019).
Where a chain is given by its changes, count along the chain named.

B1: A3 antibody (antibody, V domains shown)
VH: MQLLESGGGLVKPGGSLRLSCAASGFTFSNAWMSWVRQGPGKGLEWVGRIKSKTDGGTTDYAAPVKGRFSISRNDSNNTLFLQMNSLKTEDTAVYYCTTGPQIVVVAGATSRDQPNYYYYGLDVWGLGTTVTVSS
VL: QSVLTQPPSASGTPGQRVTISCSGSSSNIGINTVNWYQQLPGTAPKLLIYKSNLRPSGVPDRFSGSKSGTSASLAISGLRSEDEADYYCAAWDDSLTGLYVFGTGTKVTVLG
B2: A1 antibody (antibody, V domains shown)
VH: QVHLQESGPGLVKPSETLSLTCTVSGDSISTYYWSWIRQPPGKGLEWIGYVYYTGSTNYSPSLEGRVTLSVDTSKNQFSLKLNSVSAADTAVYYCARGAAEWLRFRGFFDYWGQGILVSVSS
VL: EVVLTQSPGTLSLSPGERATLSCRASQSVTNGFLAWYQQKPGQAPRVLIYGASSRATGIPDRFSGSGSGTDFTLTISRLEPEDFAMYYCQQYGLSGTFGQGTKLEIKR
B3: A2 antibody (antibody, V domains shown)
VH: QVQLQESGPGLVKPSETLSLTCTVSGGSISTYYWSWIRQSPGKGLEWMGYIYYSGSTNYNPSLESRVTIAVDTSKNQFSLQLTSVTAADTAVYYCARGAAEWLRFRGFFDSWGQGTLVTVSS
VL: B2 VL with V2N, Q27H, G32N, V47L, A52V, M86V, L94V
B4: A4 antibody (antibody, V domains shown)
VH: QVHLVESGGGVVQPGRSLRLSCATFGLNFSDYGFHWVRQAPGKGLEWVAVTSYDGSNKYYAEFVKGRFTISRDNYKNTVYLQMNSLRLEDTAVYYCARDLAPYNFWSGYGNNWFDPWGQGTLVTVSS
VL: EIVLTQSPGTLSLSPGERATLSCRASQSVTGTSLAWFQQKPGQAPRLLIYGASSRATGIPDRFSGSGSGTDFTLTISRLEPEDFAVYYCQQYGSSPRLTFGGGTKVEIKR
B5: A5 antibody (antibody, V domains shown)
VH: B4 VH
VL: EIVMTQSPATLSVSPGERATLSCRASQSISSNLAWYQQKPGQAPRLLIYDASTRATGIPARFSGSGSGTEFTLTISSLQSEDFAVYYCQQYNDWLVTFGQGTKVEIKR
B6: B5 antibody (antibody, V domains shown)
VH: QVHLQESGPGLVKPSGTLSLTCAVSGGSISYTNWWSWVRLPPGKGLEWIGEIYHSRSTNYNPSLKSRVTMSIDKSKNLFSLKLNSVTAADTAIYYCAKAAYTRDGIQPFDNWGQGTLVTVSS
VL: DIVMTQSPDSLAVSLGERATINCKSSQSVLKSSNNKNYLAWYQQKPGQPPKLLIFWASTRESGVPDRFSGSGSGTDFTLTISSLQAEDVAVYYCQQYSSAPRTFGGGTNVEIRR
B7: B1 antibody (antibody, V domains shown)
VH: EVQLVESGGGLVQPGGSLRLSCAASGFTFRSYWMHWVRQVPGKGLVWVSCINKEGSSTTYADSVKGRFTISRDNAKNTLYLEMNSLRADDTAVYYCLRGYDVDYWGQGTLVTVSS
VL: QAVLTQPSSLSASPGASVSLTCTLRSGINVGTYRIYWYQQKPGSPPRYLLRYKSGLDKHQGSGVPSRFSGSKDDSANAGILFISGLQSEDEADYYCLIWHSSAVVFGGGTKLTVLG
B8: B3 antibody (antibody, V domains shown)
VH: B7 VH with A23S, E82Q
VL: B7 VL with I28V, T32S, D90N, E91D, S101N
B9: B6 antibody (antibody, V domains shown)
VH: EVQLVESGGGLVQPGGSLRLSCAASGFTFTTSTMNWVRQAPGKGLEWVSYITRTSTVIYYADSVKGRFTISRDNAKNSLYLQMSSLRAEDTAVYYCARGVRDIGGNGFDYWGQGTLVTVSS
VL: B4 VL with G31S, T32S, S33Y, F37Y, P41T, S77A, R97P, L98Y, G102Q, V106L
B10: B4 antibody (antibody, V domains shown)
VH: EVQLVESGGGLVKPGGSLRVSCAASGFTFSSYSMNWIRQAPGKGLEWVSSISSNSSYIYYADSVKGRFTISRDNAKNSLYLQMNSLRAEDTAVYYCARDRDYSNYLTAWGQGTLVTVSS
VL: QSVLTQPPSVSGAPGQRVTISCTGSSSNIGAGYDVHWYRQLPGTAPKLLIYGKNNRPSGVPNRFSGSKSGTSASLAITGLQAEDEADYYCQSYDSSLSGSVFGGGTKLTVLG

molecular target: T1, C. difficile toxin A from strain VPI10463 (ATCC 43255), toxinotype 0 (Clostridium difficile, UniProt P16154 1-2710); assay: BLI (Octet Red96), antibody on Protein A sensor, toxin in solution

Row | Binder | Kd [nM] | koff [s⁻¹] | kon [M⁻¹ s⁻¹]
1 | B1 | 0.461 | 7.77e-05 | 169000
2 | B2 | < 0.01 | < 3.75e-06 | 375000
3 | B3 | 0.00443 | 1.58e-06 | 356000
4 | B4 | 0.000557 | 3.09e-07 | 555000
5 | B5 | 0.144 | 4.49e-05 | 312000

molecular target: T2, C. difficile toxin B from strain VPI10463 (ATCC 43255), toxinotype 0 (Clostridium difficile, UniProt P18177 2-2366); assay: as above

Row | Binder | Kd [nM] | koff [s⁻¹] | kon [M⁻¹ s⁻¹]
6 | B6 | 0.202 | 9.62e-05 | 477000
7 | B7 | 0.0477 | 2.79e-05 | 585000
8 | B8 | 0.487 | 9.4e-05 | 193000
9 | B9 | 0.000726 | 5.3e-07 | 730000
10 | B10 | 0.121 | 6.44e-05 | 531000

molecular target: T3, WT Toxin B MLD (1-91) + LPETGG + 6X HIS (Clostridium difficile); assay: Western, dot blot, Octet (summary)

Row | Binder | binding result
11 | B7 | no binding

molecular target: T1, C. difficile toxin A from strain …; assay: cell-based or functional assay

Row | Binder | % completion cytotox (Vero cells) [%] | Cytotox NT50, pM (Vero cells) [pM]
12 | B1 | 90 | 980
13 | B2 | < 90 | 48
14 | B3 | 100 | 55
15 | B4 | < 90 | 3400
16 | B5 | 75 | 2700

molecular target: T2, C. difficile toxin B from strain …; assay: cell-based or functional assay

Row | Binder | % completion cytotox (Vero cells) [%] | Cytotox NT50, pM (Vero cells) [pM]
17 | B6 | 95 | 2900
18 | B7 | 95 | 49
19 | B8 | 100 | 100

molecular target: T1, C. difficile toxin A from strain …; assay: not given

Row | Binder | Kd [nM]
20 | B3 | < 0.01
21 | B4 | < 0.01

molecular target: T2, C. difficile toxin B from strain …; assay: not given

Row | Binder | Kd [nM]
22 | B9 | < 0.01

molecular target: T3, WT Toxin B MLD (1-91) + LPETGG + 6X HIS; assay: BLI (Octet RED96)

Row | Binder | binding result
23 | B8 | no binding

molecular target: Mutant Toxin B MLD (1-91) + LPETGG + 6X HIS (Clostridium difficile); assay: BLI (Octet RED96)

Row | Binder | binding result
24 | B7 | no binding
25 | B8 | no binding

molecular target: T1, C. difficile toxin A from strain …; assay: cell-based or functional assay; remark: another data set of the same source

Row | Binder | % completion TEER (T-84 cells) [%] | TEER NT50, nM (T-84 cells) [nM]
26 | B1 | 80 | 1.3
27 | B2 | 80 | < 1.3
28 | B3 | 75 | 1.8
29 | B4 |  | 4.7
30 | B5 |  | 7.3

molecular target: T2, C. difficile toxin B from strain …; assay: cell-based or functional assay; remark: another data set of the same source

Row | Binder | % completion TEER (T-84 cells) [%] | TEER NT50 (T-84 cells)
31 | B6 | 70 | 200
32 | B7 | 91 | 270
33 | B8 | 95 | 600
34 | B9 | 92 | 100
35 | B10 | 93 | 130
